This is an account of results in US20260234242A1 (HAINAN SIMCERE ZAIMING PHARMACEUTICAL, published 2026).

The labels stand for the following.
T1: his-tagged human CDH6 extracellular region protein (hCDH6 ECD-his) (human, UniProt P55285 19-615)
T1 construct: also called Human CDH6-his; hCDH6-his; not shown: his tag
T1 sequence: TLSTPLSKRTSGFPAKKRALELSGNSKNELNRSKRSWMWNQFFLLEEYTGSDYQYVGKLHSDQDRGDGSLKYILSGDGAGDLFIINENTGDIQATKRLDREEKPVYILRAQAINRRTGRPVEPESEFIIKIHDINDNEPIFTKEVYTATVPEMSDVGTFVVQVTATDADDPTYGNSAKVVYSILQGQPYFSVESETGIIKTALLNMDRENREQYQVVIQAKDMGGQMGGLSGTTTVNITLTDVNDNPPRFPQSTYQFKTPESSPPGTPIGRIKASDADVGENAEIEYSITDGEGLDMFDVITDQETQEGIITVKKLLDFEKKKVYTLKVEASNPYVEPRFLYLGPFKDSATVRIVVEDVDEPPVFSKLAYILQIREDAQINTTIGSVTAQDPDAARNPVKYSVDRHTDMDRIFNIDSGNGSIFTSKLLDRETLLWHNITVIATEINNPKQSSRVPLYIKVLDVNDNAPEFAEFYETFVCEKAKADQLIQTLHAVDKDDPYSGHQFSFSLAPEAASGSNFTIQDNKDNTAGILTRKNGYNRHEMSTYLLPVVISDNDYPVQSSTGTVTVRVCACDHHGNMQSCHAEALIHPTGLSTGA

T2: human CDH6 with EC5 removed, on HEK293T cells (HEK293T-hCDH6-EC5 deletion) (human, UniProt P55285 54-790)
T2 construct: Signal peptide not removed here
T2 sequence: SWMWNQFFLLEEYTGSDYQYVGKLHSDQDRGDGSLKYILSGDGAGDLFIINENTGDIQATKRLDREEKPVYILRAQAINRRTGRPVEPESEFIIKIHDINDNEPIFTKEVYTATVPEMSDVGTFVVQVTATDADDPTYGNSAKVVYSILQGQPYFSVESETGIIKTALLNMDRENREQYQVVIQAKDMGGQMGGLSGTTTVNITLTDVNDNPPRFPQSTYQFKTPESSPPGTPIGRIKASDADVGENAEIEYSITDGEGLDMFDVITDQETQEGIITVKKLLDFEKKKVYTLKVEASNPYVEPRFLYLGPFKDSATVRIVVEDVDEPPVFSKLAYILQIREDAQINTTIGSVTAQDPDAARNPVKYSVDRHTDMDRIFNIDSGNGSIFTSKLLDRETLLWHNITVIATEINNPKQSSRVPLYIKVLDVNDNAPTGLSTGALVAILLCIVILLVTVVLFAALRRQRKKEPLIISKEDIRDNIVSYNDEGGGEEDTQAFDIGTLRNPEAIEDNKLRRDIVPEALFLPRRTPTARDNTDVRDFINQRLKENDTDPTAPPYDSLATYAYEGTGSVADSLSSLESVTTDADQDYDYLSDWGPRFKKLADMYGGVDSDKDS

B1: NOV0712 (antibody, human IgG1, kappa, V domains shown)
VH: QVQLLESGGGLVQPGGSLRLSCAASGFTFSSHGMHWVRQAPGKGLEWVSVISGSGSNTGYADSVKGRFTISRDNSKNTLYLQMNSLRAEDTAVYYCARQWGSYAFDSWGQGTLVTVSS
VL: DIQMTQSPSSLSASVGDRVTITCRASQSISSYLNWYQQKPGKAPKLLIYAVSTLQSGVPSRFSGSGSGTDFTLTISSLQPEDFATYYCQQSGTFPPTTFGQGTKVEIKR
notes: Positive control, variable regions from WO2018212136A1; also called positive control anti-human CDH6 antibody
B2: CHI-CDH6-11 (antibody, human IgG1, kappa, V domains shown)
VH: QIQLQQSGPELVKPGASVRISCKASGYTFTDYYITWVKLRPGQGLEWIGWIYPGSVNIKYNEKFKGKATLTVDTSSSTAYMQLNSLTSEDSAVYFCARGGYSWFPYWGQGTLVTVSA
VL: NIVMTQSPKSMSMSVGERVTLSCKASENVHTYVSWYQQKPEQSPKLLFYGASTRNTGVPDRFTGSGSATDFTLTISSVQAEDLADYYCGQSYSYPYTFGSGTKLEIKR
notes: also called chimeric antibody of murine CDH6-11
B3: CHI-CDH6-9 (antibody, human IgG1, kappa, V domains shown)
VH: QVQLQQPGAELVKPGASVKLSCKASGYTFTGYWMHWVRQRPGQGLEWIGEINPNNGGTNCNEQFKNKATLTVDKSSSTAYMQLSSLTSEDSAVFYCTISFGNYLFFDVWGAGTTVTVSS
VL: DIQMTQSPASLAASVGETITITCQASENIYFSLAWYQQKQGKSPQLLIYNANTLEDGVPSRFVGSGSGTQYSMKINSIQPEDTATYFCDQTYDFPWTFGGGTKLEIKR
notes: also called chimeric antibody of murine CDH6-9
B4: CHI-CDH6-1 (antibody, human IgG1, kappa, V domains shown)
VH: QVQLQQPGAELVRPGSSVKLSCKASGYTFTNYWMHWVKQRPIEGLEWIGDIDPSHSETHYTQKFKDKATLTVDKSSSTAYMQLSSLTSEDSAVYYCARGDLGRFDYWGQGTTLTVSS
VL: DIVLTQSPASLAVSLGQRATISCRASESVSIHGTHLMHWYQQKSGQPPKLLIYAASNLESGVPARFSGSGSETDFTFNIHPVEEEDAATYFCQQSFEDPWTFGGGTKLEIKR
notes: also called CHI-hCDH6-1; CH1-CDH6-1
B5: CHI-CDH6-10 (antibody, human IgG1, kappa, V domains shown)
VH: QVQLQQPGAELVKPGTSVKMSCKASGYTFTSDWIAWVKQRPGQGLEWIGDIYPGSGRTHNNEKFNFKATLTVDTSSNTAYMQLSSLTSEDSAVYFCARPMLGRFDYWGQGTTLTVSS
VL: DIVLTQSPASLAVSLGQRATISCRASESVSIHGTHLMHWYQQKPGQPPKLLIYAASNLESGVPARFSGSGSETDFTLNIHPVEEEDAATYFCQQSFEDPFTFGSGTKLEIKR
notes: also called chimeric antibody of murine CDH6-10
B6: CHI-CDH6-6 (antibody, human IgG1, kappa, V domains shown)
VH: EVQLQQSGPELVKPGDSVKMSCKASGYTFTDYYMAWVRQSHRKSLEWIGYIFPNSGGTDYSQKFKGKATLTVDKSSSTVYMELHSLTSEDSAVYYCARELGADYGDYYAMDHWGQGTSVSVSS
VL: DIQMTQSPASLSASVGETVTITCRASENIDSYLAWYQQKQGKSPQLLVYSATLLADGVPSRFSGSGSGTQYSLKINSLKSEDVARYYCQHYYRTPPTFGSGTKLEIKR
notes: also called CHI-hCDH6-6; chimeric antibody of murine CDH6-6
B7: CHI-CDH6-8 (antibody, human IgG1, kappa, V domains shown)
VH: EVQLQQSGPELVKPGDSVKMSCKASGYTFTDYYMAWIKQNHGKSLEWIGYIYPNNGGTDYNQKFRGKATLTVDKSSSAAYMELHSLTSEDSAVYYCAREIGTLYGDYYAMDYWGQGTSVTVSS
VL: DIQMTQSPASLSASVGETVTITCRASENIDSYLAWYQQKQGKSPQLLVYTATLLADGVPSRFSGSGSGTQYSLKINSLQSEDVARYYCQHYYSTPPTFGSGTKLEIKR
notes: also called chimeric antibody of murine CDH6-8
B8: CHI-CDH6-2 (antibody, human IgG1, kappa, V domains shown)
VH: EVQLQQSGPELVKPGASVRISCKASGYTFTDYYMNWVKQSHGKSLEWIGDIDPNNANTTYNQKFKGKATLTVDKSSSTAYMELRSLTSEDSAVYSCASFGYDVEWFGYWGQGTLVTVSA
VL: QIVLTQSPALMSASPGEKVTMTCSASSSVSYMYWYQQKPRSSPKPWIYLTSNLASGVPARFSGSGSGTSYSLTISSMEAEDAATYYCQQWSSNPFTFGSGTKLEIKR
notes: also called chimeric antibody of murine CDH6-2
B9: CHI-CDH6-13 (antibody, human IgG1, kappa, V domains shown)
VH: DVQLQESGPGLVKPSQSLSLTCSVTGYSITKDSYWNWIRQFPGSKLEWMGFISYDGSRHYNPSLKNRISITRDTSKNQFFLQLNSVTTEDTATYYCARRDYADYWGQGTTLTVSS
VL: QIVLTQSPALMSAFPGEKVTMTCSATSSVSYIYWYQQKPRSSPKPWIYLTSNLASGVPARFSGSGSGTSYSLTINSLEAEDAATYYCQQWSSIPYTFGGGTKLEIKR
notes: also called chimeric antibody of murine CDH6-13
B10: CHI-CDH6-14 (antibody, human IgG1, kappa, V domains shown)
VH: QIQLQQSGPELVKPGTSVKISCKASGYTFTDNYINWVRQRPGQGLEWIGWIYPGTGNSYYNEKFKGKATLTVDTSSSTAYMQFSSLTSEDSAVYLCASSYGDSFDYWGQGTTLTVSS
VL: DIQMTQTTSSLSASLGNRVTISCRASQDIRNYLNWYQQKPDGTFKLLISYTSRLHSGVPSRFSGSGSGTDYSLTVSNLEPEDIATYYCQQYSQLPWTFGGGSRLEIKR
notes: also called CHI-hCDH6-14; CH1-CDH6-14

The first experiment addresses T1, his-tagged human CDH6 extracellular …. As to the kind of experiment: SPR Biacore 8K, antibody captured on Protein A. The method, then: The affinity of the antibody for the antigen was determined by a multi-cycle kinetic method using a BIAcore 8K instrument. In each cycle, the antibody to be tested was captured using a Protein A chip (purchased from GE, Cat. No. 29-1275-56), and then the antigen human CDH6 protein (hCDH6-his, conventionally synthesized) was injected. The association and dissociation processes of the antibody with the antigen protein were recorded, and finally, the chip was regenerated using Glycine pH 1.5, wherein the mobile phase was HBS-EP+ (10 mM HEPES, 150 mM NaCl, 3 mM EDTA, 0.05% surfactant P20, and 1 mM Ca), the flow rate was 30 μL/min, the association time was 240 s, the dissociation time was 300 s, the regeneration time was 30 s, the detection temperature was 25° C., and the antigen concentration was 31.25-1000 nM. The data were analyzed using Biacore 8K analysis software (version No. 2.0) based on the 1:1 binding model to fit the antibody-antigen binding kinetic parameters, including the association rate constant ka, the dissociation rate constant kd, and the equilibrium dissociation constant KD. The affinity values of the control antibody DS-H01L02 were undetectable. Antibodies not shown in the table had undetectable affinity values.
(In general: Surface plasmon resonance follows binding to a sensor surface in real time, without labels.)
The Kd is the free concentration of one partner at which half of the binding sites on the other are occupied at equilibrium, for simple one-to-one binding. Lower therefore signals a tighter complex. Usually koff stands for the rate constant with which the complex falls apart. Higher therefore signals fast dissociation. For orientation: kon means the second-order rate constant of association. Read a low kon as slower complex formation. In turn, B1 gave a Kd of 53.5 nM, a koff of 0.00267 s⁻¹ and a kon of 49900 M⁻¹ s⁻¹.
As for B2, binding was characterised by a dissociation constant (Kd) of 5.72 nM, the koff amounted to 0.000201 s⁻¹ and the kon was found to be 35200 M⁻¹ s⁻¹.
In the same order, the values of B3 are 138 nM, 0.00159 s⁻¹ and 11600 M⁻¹ s⁻¹.
In the same order, the values of B4 are 8.87 nM, 0.00585 s⁻¹ and 659000 M⁻¹ s⁻¹.
On the same counts, the results for B5 are 20.3 nM, 0.00364 s⁻¹ and 179000 M⁻¹ s⁻¹.
B6: the Kd came out at 58.6 nM, the koff worked out at 0.00508 s⁻¹ and the kon was 86800 M⁻¹ s⁻¹.
Molecule B7 returned a Kd of 31.2 nM, a koff of 0.00378 s⁻¹ and a kon of 121000 M⁻¹ s⁻¹.
B8 returned a Kd of 3.68 nM, a koff of 0.00185 s⁻¹ and an association rate constant (kon) of 503000 M⁻¹ s⁻¹.
In the same order, the values of B9 are 78.1 nM, 0.00184 s⁻¹ and 23600 M⁻¹ s⁻¹.

The target in the next experiment is T2, human CDH6 with EC5 removed, on HEK293T …. Briefly: FACS, HEK293T-hCDH6-EC5 deletion cells. From the text:
To confirm the binding epitope of the CDH6 antibody, the sequences after removal of these 5 regions were constructed into pcDNA3.1 vectors (purchased from Youbio, Cat. No. VT1001), and transfected into HEK293T cells (purchased from Cell Bank of Chinese Academy of Sciences, Cat. No. SCSP-502) to obtain 5 CDH6 truncated cell lines: HEK293T-hCDH6-EC1 deletion, HEK293T-hCDH6-EC2 deletion, HEK293T-hCDH6-EC3 deletion, HEK293T-hCDH6-EC4 deletion, and HEK293T-hCDH6-EC5 deletion.
The binding activity of the CDH6 chimeric antibodies to these 5 cell lines was assayed by FACS.
Turning to B1, the binding result is given as “no binding (tested: MFI ~1.5 times that of hIgG1 (81))”.
For B10, the “Max MFI” value came out at 4040 MFI.
On the same count and under the same terms, the value for B4 was 14300 MFI.
